Reference: article PMC8017925, “Structural basis for differential recognition of phosphohistidine-containing peptides by 1-pHis and 3-pHis monoclonal antibodies” (Proceedings of the National Academy of Sciences of the …, 2021)
*1 amine or outer side, *2 acyl side, *3 side chain or, on linkers, in order; H or OH if unused. Where no end group is shown, it is not given here. [ ]: non-standard residue; d: D form. The star is where a group is joined. 1‑pHis = 1-phosphohistidine, O=C([C@H](Cc1cncn1P(=O)(O)O[*:3])N[*:1])[*:2]; Biotin = O=C1N[C@H]2[C@H](CS[C@H]2CCCCC(=O)*)N1

Experiment: Stability of 1- and 3-pHis peptides with and without pHis mAbs (BLI read-out)
Assay type: physicochemical
Settings: phosphorylated ACLYana, 0-24 h, no pHis mAbs; read-out BLI signal at end of association, normalized to 0 h
Description: Next, we examined the ability of these Fabs to recognize phosphorylated substrates using differential scanning fluorimetry (DSF).
Fig. S6. Stability of 1- and 3-pHis peptides in the presence of pHis mAbs. In the BLI experiment, analytes were SC50-3 (A and B) and SC44-8 (C and D) Fabs and ligand was the ACLYana peptide.
Prior to the experiment, the peptide was phosphorylated with phosphoramidate and divided into two sets - set A and set B. The set A peptide was incubated with 1- and 3-pHis mAbs separately for extended periods of time (0 - 24 h) and set B was not incubated with pHis mAbs. The ACLYana-pHis peptide incubated with the mixture of 1-pHis IgGs (A, continuous lines) and 3-pHis IgGs (C, continuous lines) has the higher signal intensity at all time points compared to […]
(discontinuous lines). The BLI signal intensity at the end of association phase was used to compare the rate of hydrolysis with (set A) and without incubation with pHis mAbs (set B). The signal intensities were normalized to the 0 h (B and D). The unphosphorylated peptide was used as a […]
the rate of dephosphorylation. In the absence of pHis mAb incubation, 1-pHis peptide hydrolyzed […]
(1 picture or pasted object on this page, not shown here)

1-pHis peptide: 1-pHis isomer of phosphorylated ACLYana peptide (Biotin-AGAG[1‑pHis]AGAG)
hydrolysis of pHis peptide in the absence of pHis mAb incubation: faster than 3-pHis peptide
